The text below walks through data of paper PMC13507205, “FAIMS-GPF XL-MS: crosslinking-mass spectrometry based on gas-phase fractionation” (Nature Communications, 2026).

For the experiment, the target named is T1, CDK7 kinase fused to a C-terminal Strep-tag II sequence (UniProt P50613 1-346).
T1 construct: No cleavage of the tag is described; The theoretical mass of the trimer (113,879 Da with one phosphorylation) would fit whole chains; source: Sf21 cells, baculovirus, purified as the CAK complex (Strep-Tactin XT, eluted with biotin)
T1 sequence (P50613 whole entry, the tested form may be a part): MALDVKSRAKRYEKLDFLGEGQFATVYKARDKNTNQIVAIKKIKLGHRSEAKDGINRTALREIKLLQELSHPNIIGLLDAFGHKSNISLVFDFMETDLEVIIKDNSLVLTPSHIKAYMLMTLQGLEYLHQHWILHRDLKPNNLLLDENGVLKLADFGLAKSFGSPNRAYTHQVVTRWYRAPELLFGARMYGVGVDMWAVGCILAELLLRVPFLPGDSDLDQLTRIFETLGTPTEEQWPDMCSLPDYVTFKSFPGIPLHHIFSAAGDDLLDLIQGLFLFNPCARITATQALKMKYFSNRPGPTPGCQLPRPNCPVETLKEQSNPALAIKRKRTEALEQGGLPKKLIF
The experiment can be described thus: cross-linking; purified CAK complex (co-expressed, co-purified) at 0.7 mg/mL in 20 mM Hepes pH 8, 150 mM KCl, 1 mM EDTA, 1 mM DTT, 50 mM biotin; DSSO at 200 molar excess, 45 min, RT; three replicates; 4-CV FAIMS-GPF nLC-MS/MS; XLs kept if in at least 2 of 3 replicates. The following applies: both partners purified.

B1: MAT1 (natural protein, UniProt P51948 1-309, looked up)
chain: MDDQGCPRCKTTKYRNPSLKLMVNVCGHTLCESCVDLLFVRGAGNCPECGTPLRKSNFRVQLFEDPTVDKEVEIRKKVLKIYNKREEDFPSLREYNDFLEEVEEIVFNLTNNVDLDNTKKKMEIYQKENKDVIQKNKLKLTREQEELEEALEVERQENEQRRLFIQKEEQLQQILKRKNKQAFLDELESSDLPVALLLAQHKDRSTQLEMQLEKPKPVKPVTFSTGIKMGQHISLAPIHKLEEALYEYQPLQIETYGPHVPELEMLGRLGYLNHVRAASPQDLAGGYTSSLACHRALQDAFSGLFWQPS
notes: MAT1, subunit of the CAK heterotrimer; source: Sf21 cells, baculovirus, purified as the CAK complex (Strep-Tactin XT, eluted with biotin)
On to B1, for which the binding result is “binds”.
